Residue numbers refer to the chain shown, from its start. Read-outs that look alike come from different tables or passages of the source.
Columns and labels:
[1] = molecular target: T1, CAT400, catalytic domain of ACT, residues 1-400 (Bordetella pertussis, UniProt J7QLC0 1-400); assay: ELISA: CAT400 coated equimolar with ACT, M1H5 IgG titrated from 1 nM, detected with anti-human Fc-HRP
[2] = molecular target: T2, HP1096*, hydrophobic domain of ACT, residues 399-1096, MBP fusion, acylated (Bordetella pertussis, UniProt J7QLC0 399-1096); assay: ELISA: HP1096* coated equimolar with ACT, M1H5 IgG titrated from 1 nM, detected with anti-human Fc-HRP
[3] = molecular target: T3, Bordetella adenylate cyclase toxin (ACT), full-length, acylated (Bordetella pertussis, UniProt J7QLC0 1-1706); assay: cell-based or functional assay
[4] = molecular target: T4, RTX751, RTX domain of ACT, residues 751-1706, non-acylated (Bordetella pertussis, UniProt J7QLC0 751-1706); assay: method and antibody format not stated
T4 construct: Expressed without CyaC

[5] = molecular target: T5, RTX985, RTX domain of ACT, residues 985-1706 (Bordetella pertussis, UniProt J7QLC0 985-1706)
[6] = molecular target: T4, RTX751, RTX domain of ACT, residues …
[7] = molecular target: T4, RTX751, RTX domain of ACT, residues …; assay: ELISA: Bp-RTX751 coated, M2B10 IgG titrated
Br-RTX751 = molecular target: T6, Br-RTX751 (Bordetella bronchiseptica); assay: ELISA: Br-RTX751 coated, M2B10 IgG titrated
T6 construct: fragment

Bpp-RTX751 = molecular target: T7, Bpp-RTX751 (Bordetella parapertussis); assay: ELISA: Bpp-RTX751 coated, M2B10 IgG titrated
T7 construct: fragment

[8] = molecular target: T3, Bordetella adenylate cyclase toxin …; assay: ELISA: ACT coated, M2B10 IgG titrated from 1 nM, detected with anti-human Fc-HRP
[9] = molecular target: T1, CAT400, catalytic domain of ACT, …; assay: ELISA: CAT400 coated equimolar with ACT, M2B10 IgG titrated from 1 nM, detected with anti-human Fc-HRP
[10] = molecular target: T2, HP1096*, hydrophobic domain of ACT, …; assay: ELISA: HP1096* coated equimolar with ACT, M2B10 IgG titrated from 1 nM, detected with anti-human Fc-HRP
[11] = molecular target: T1, CAT400, catalytic domain of ACT, …; assay: ELISA, murine αMβ2 integrin coated, domain serially diluted
[12] = molecular target: HP1096, hydrophobic domain of ACT, residues 399-1096, MBP fusion, non-acylated (Bordetella pertussis, UniProt J7QLC0 399-1096); assay: as above
[13] = molecular target: T2, HP1096*, hydrophobic domain of ACT, …; assay: as above
[14] = molecular target: T5, RTX985, RTX domain of ACT, residues …; assay: as above

B1: M1H5 chimeric IgG1/κ antibody (antibody, V domains shown)
VH: EVNLVESGGDLVKPGGSLKLSCAASGFTFSSYGMSWVRQTPDKRLEWVATISSGGTYTYYPDSVKGRFTISRDNAKNTLYLQMSSLKSEDTAMYYCAREIMRGGGYYFDYWSQGTTLTVSS
VL: DIQMIQSTSSLSASLGDRVTISCRASQDISNYLNWYQQKPDGTVKLLIYYTSRLHSGVPSRFSGSGSGTDYSLTISNLEQEDIATYFCQQGNTLPYTFGGGTKLEIKR
notes: also called M1H5 IgG; not shown: human IgG1 constant domains (IgG-Abvec vector); human kappa constant domain (Igκ-Abvec vector)
Question: Does B1 bind [1]?
Answer: no binding (tested: 1 nM)

Question: Does B1 bind [2]?
Answer: no binding (tested: 1 nM)

B2: M2B10 antibody (format not stated) (antibody, V domains shown)
VH: EVQLQQSGAELVRPGTSVKVSCKASGYAFTNYLIEWVKQRPGQGLEWIGVINPGIGNTNYNEKFKGKATLTADKSSSTVYMQLSSLTSDDSAVYFCARGLNYGSSQHWYFDVWGAGTSVTVSS
VL: DIVMTQSPAILSASLGERVTMTCTASSSVSSSYLHWYQQKPGSSPKLWIYSTSNLASGVPARFSGSGSGTSYSLTISSMEAEDAATYYCHQYHRSPPTFGAGTKLEIKR
Question: B2 was tested. Which “IC50, J774A.1 macrophage cell line intoxication assay with 125 ng/mL ACT (0.7 nM)” value [3] did it give?
Answer: 6000 pM

Question: What about the Kd [4] of the same binder?
Answer: ~1200 pM

B3: M2B10 chimeric IgG1/κ antibody (antibody, V domains shown)
VH: B2 VH
VL: B2 VL
notes: also called M2B10 IgG; not shown: human IgG1 constant domains (IgG-Abvec vector); human kappa constant domain (Igκ-Abvec vector)
Question: Which results are given for B3?
Answer: EC50 (read off the curve) [5]: ~40 pM; EC50 (read off the curve) [6]: ~40 pM; EC50 (read off the curve) [7]: ~50 pM; EC50 (read off the curve) (Br-RTX751): ~50 pM; EC50 (read off the curve) (Bpp-RTX751): ~50 pM; EC50 (read off the curve) [8]: ~40 pM; binding result [9]: no binding (tested: 1 nM); binding result [10]: no binding (tested: 1 nM)

B4: M2C2 antibody (format not stated) (antibody, V domains shown)
VH: QVQLQQSGPELGKPGASVKISCKASGYLFTGYNIYWVKQSHRKSLEWIGYINPYNGDTSYNQKSKGKATLTVDRSSSTAYMHLNSLTSEDSAIYFCARGYYVRPLDYWGQGTTLTVSS
VL: B2 VL with M4L, L11M, A101G
Question: B4 was tested. Which “IC50, J774A.1 macrophage cell line intoxication assay with 125 ng/mL ACT (0.7 nM)” value [3] did it give?
Answer: 8100 pM

Question: And the Kd [4]?
Answer: ~1500 pM

B5: M1F10 single-chain antibody fragment (scAb) (scFv, not shown: a dimerising Fc or GST)
scFv: DIVMTQSPASLAVSLGQRATISCRASESVGNYGISFTNWYQQKPGQPPKLLIYAASNLESGIPARFSGSGSGTDFTLNIHPVEEEDAATYYCQQSNEDPYTFGGGTKLEIKRGGGGGGSGGGGSGGGGSGGGGSEVKLVESGGDLVKPGGSLKLSCAASGFTFSSYGMSWVRQTPDKRLEWVATISSGGTYTYYPDSVKGRFTISRDNAKNTLYLQMSSLKSEDTAMYYCAREIMRGGGYYFDYWGQGTTLTVSS
Question: How did the “reduction of intracellular cAMP level in J774A.1 cells, scAb at 160-fold molar excess over ACT” value (from here on “reduction … at 160-fold molar excess over ACT”) [3] turn out when B5 was run?
Answer: > 90%

B6: Recombinant soluble murine αMβ2 integrin (R&D Systems) (receptor)
chain 1: FNLDTEHPMTFQENAKGFGQNVVQLGGTSVVVAAPQEAKAVNQTGALYQCDYSTSRCHPIPLQVPPEAVNMSLGLSLAVSTVPQQLLACGPTVHQNCKENTYVNGLCYLFGSNLLRPPQQFPEALRECPQQESDIVFLIDGSGSINNIDFQKMKEFVSTVMEQFKKSKTLFSLMQYSDEFRIHFTFNDFKRNPSPRSHVSPIKQLNGRTKTASGIRKVVRELFHKTNGARENAAKILVVITDGEKFGDPLDYKDVIPEADRAGVIRYVIGVGNAFNKPQSRRELDTIASKPAGEHVFQVDNFEALNTIQNQLQEKIFAIEGTQTGSTSSFEHEMSQEGFSASITSNGPLLGSVGSFDWAGGAFLYTSKDKVTFINTTRVDSDMNDAYLGYASAVILRNRVQSLVLGAPRYQHIGLVVMFRENFGTWEPHTSIKGSQIGSYFGASLCSVDMDADGNTNLILIGAPHYYEKTRGGQVSVCPLPRGRARWQCEALLHGDQGHPWGRFGAALTVLGDVNGDKLTDVAIGAPGEQENQGAVYIFYGASIASLSASHSHRIIGAHFSPGLQYFGQSLSGGKDLTMDGLMDLAVGAQGHLLLLRAQPVLRLEATMEFSPKKVARSVFACQEQVLKNKDAGEVRVCLRVRKNTKDRLREGDIQSTVTYDLALDPVRSRIRAFFDETKNNTRRRTQVFGLMQKCETLKLILPDCVDDSVSPIILRLNYTLVGEPLRSFGNLRPVLAMDAQRFFTAMFPFEKNCGNDSICQDDLSITMSAMGLDTLVVGGPQDFNMSVTLRNDGEDSYGTQVTVYYPSGLSYRKDSASQNPLTKKPWFVKPAESSSSSEGHGALKSTTWNINHPIFPANSEVTFNVTFDVDSHASFGNKLLLKAIVASENNMSRTHKTKFQLELPVKYAIYMIVTSDESSIRYLNFTASEMTSKVIQHQYQFNNLGQRSLPVSVVFWIPVQINNVTVWDHPQVIFSQNLSSACHTEQKSPPHSNFRDQLERTPVLNCSVAVCKRIQCDLPSFNTQEIFNVTLKGNLSFDWYIKTSHGHLLLVSSTEILFNDSAFALLPGQESYVRSKTETKVEPYEVHN
chain 2: QECTKYKVSSCRDCIQSGPGCSWCQKLNFTGPGEPDSLRCDTRAQLLLKGCPADDIMDPRSIANPEFDQRGQRKQLSPQKVTLYLRPGQAAAFNVTFRRAKGYPIDLYYLMDLSYSMLDDLNNVKKLGGDLLQALNEITESGRIGFGSFVDKTVLPFVNTHPEKLRNPCPNKEKACQPPFAFRHVLKLTDNSNQFQTEVGKQLISGNLDAPEGGLDAIMQVAACPEEIGWRNVTRLLVFATDDGFHFAGDGKLGAILTPNDGRCHLEDNMYKRSNEFDYPSVGQLAHKLSESNIQPIFAVTKKMVKTYEKLTEIIPKSAVGELSDDSSNVVQLIKNAYYKLSSRVFLDHSTLPDTLKVTYDSFCSNGASSIGKSRGDCDGVQINNPVTFQVKVMASECIQEQSFVIRALGFTDTVTVQVRPQCECQCRDQSREQSLCGGKGVMECGICRCESGYIGKNCECQTQGRSSQELERNCRKDNSSIVCSGLGDCICGQCVCHTSDVPNKEIFGQYCECDNVNCERYNSQVCGGSDRGSCNCGKCSCKPGYEGSACQCQRSTTGCLNARLVECSGRGHCQCNRCICDEGYQPPMCEDCPSCGSHCRDNHTSCAECLKFDKGPFEKNCSVQCAGMTLQTIPLKKKPCKERDSEGCWITYTLQQKDGRNIYNIHVEDSLECVKGPN
notes: extracellular domain; also called αMβ2 receptor; soluble αMβ2 integrin
Question: Does B6 bind [11]?
Answer: no binding

Question: Does B6 bind [12]?
Answer: no binding

Question: Does B6 bind [13]?
Answer: no binding

Question: Does B6 bind [14]?
Answer: no binding

B7: M1E2 single-chain antibody fragment (scAb) (scFv, not shown: a dimerising Fc or GST)
scFv: DIVMTQSPAIMSASLGERVTMTCTASSSVSSSYLHWYQQKPGSSPKLWIYSTSNLASGVPARFSGSGSGTSYSLTISSMEAEDAATYYCHQYHRSPPTFGGGTKLEIKRGGGGGGSGGGGSGGGGSGGGGSQVQLKQSGAELVRPGTSVKVSCKASGYAFTNYLIEWVKQRPGQGLEWIGVINPGIGNTNYNEKFKGKATLTADKSSSTVYMQLSSLTSDDSAVYFCARGLNYGSSQHWYFDVWGAGTTVTVSS
Question: With B7 as the binder, how does the “reduction … at 160-fold molar excess over ACT” value [3] read?
Answer: > 90%

B8: M1H1 single-chain antibody fragment (scAb) (scFv, not shown: a dimerising Fc or GST)
scFv: B7 scFv with I107L, K136Q, S206F, V210A, Y211S, T249S
Question: How did the “reduction … at 160-fold molar excess over ACT” value [3] turn out when B8 was run?
Answer: > 90%

B9: M2B10 single-chain antibody fragment (scAb) (scFv)
scFv: B7 scFv with M11L, G101A, Q132E, K136Q, T249S
Question: How did the “reduction … at 160-fold molar excess over ACT” value [3] turn out when B9 was run?
Answer: > 90%

B10: M2C2 single-chain antibody fragment (scAb) (scFv, not shown: a dimerising Fc or GST)
scFv: DIVLTQSPAIMSASLGERVTMTCTASSSVSSSYLHWYQQKPGSSPKLWIYSTSNLASGVPARFSGSGSGTSYSLTISSMEAEDAATYYCHQYHRSPPTFGGGTKLEIKRGGGGGGSGGGGSGGGGSGGGGSQVQLQQSGPELGKPGASVKISCKASGYLFTGYNIYWVKQSHRKSLEWIGYINPYNGDTSYNQKSKGKATLTVDRSSSTAYMHLNSLTSEDSAIYFCARGYYVRPLDYWGQGTTLTVSS
Question: B10 was tested. Which “reduction … at 160-fold molar excess over ACT” value [3] did it give?
Answer: > 90%
